These results are taken from US20210388087A1 (Chugai, published 2021).

B1: CE115HA000 V95E one-arm antibody (antibody, human IgG1, kappa, L234A L235A, N297A, name in Kabat numbering)
heavy: QVQLVESGGGVVQPGRSLRLSCAASGFTFSNAWMHWVRQAPGKGLEWVAQIKAKSNNYATYYAESVKGRFTISRDDSKNSLYLQMNSLKTEDTAVYYCRYEHYGAYYGVDAWGQGTTVTVSSASTKGPSVFPLAPSSKSTSGGTAALGCLVKDYFPEPVTVSWNSGALTSGVHTFPAVLQSSGLYSLSSVVTVPSSSLGTQTYICNVNHKPSNTKVDKKVEPKSCDKTHTCPPCPAPEAAGGPSVFLFPPKPKDTLMISRTPEVTCVVVDVSHEDPEVKFNWYVDGVEVHNAKTKPREEQYASTYRVVSVLTVLHQDWLNGKEYKCKVSNKALPAPIEKTISKAKGQPREPQVYTLPPSRCELTKNQVSLSCAVKGFYPSDIAVEWESNGQPENNYKTTPPVLDSDGSFFLVSKLTVDKSRWQQGNVFSCSVMHEALHNHYTQKSLSLSPDYKDDDDK
chain: EPKSSDKTHTCPPCPAPELLGGPSVFLFPPKPKDTLMISRTPEVTCVVVDVSHEDPEVKFNWYVDGVEVHNAKTKPREEQYNSTYRVVSVLTVLHQDWLNGKEYKCKVSNKALPAPIEKTISKAKGQPREPQVCTLPPSRDELTKNQVSLWCLVKGFYPSDIAVEWESNGQPENNYKTTPPVLDSDGSFFLYSKLTVDKSRWQQGNVFSCSVMHEALHNRYTQKSLSLSP
light: DIVMTQSPLSLPVTPGEPASISCRSSQSLVHSNRNTYLHWYQQKPGQAPRLLIYKVSNRFSGVPDRFSGSGSGTDFTLKISRVEAEDVGVYYCGQGTQVPYTFGQGTKLEIKRTVAAPSVFIFPPSDEQLKSGTASVVCLLNNFYPREAKVQWKVDNALQSGNSQESVTEQDSKDSTYSLSSTLTLSKADYEKHKVYACEVTHQGLSSPVTKSFNRGEC
B2: CE115HA000 V95S one-arm antibody (antibody, human IgG1, kappa, L234A L235A, N297A, name in Kabat numbering)
heavy: QVQLVESGGGVVQPGRSLRLSCAASGFTFSNAWMHWVRQAPGKGLEWVAQIKAKSNNYATYYAESVKGRFTISRDDSKNSLYLQMNSLKTEDTAVYYCRYSHYGAYYGVDAWGQGTTVTVSSASTKGPSVFPLAPSSKSTSGGTAALGCLVKDYFPEPVTVSWNSGALTSGVHTFPAVLQSSGLYSLSSVVTVPSSSLGTQTYICNVNHKPSNTKVDKKVEPKSCDKTHTCPPCPAPEAAGGPSVFLFPPKPKDTLMISRTPEVTCVVVDVSHEDPEVKFNWYVDGVEVHNAKTKPREEQYASTYRVVSVLTVLHQDWLNGKEYKCKVSNKALPAPIEKTISKAKGQPREPQVYTLPPSRCELTKNQVSLSCAVKGFYPSDIAVEWESNGQPENNYKTTPPVLDSDGSFFLVSKLTVDKSRWQQGNVFSCSVMHEALHNHYTQKSLSLSPDYKDDDDK
chain: EPKSSDKTHTCPPCPAPELLGGPSVFLFPPKPKDTLMISRTPEVTCVVVDVSHEDPEVKFNWYVDGVEVHNAKTKPREEQYNSTYRVVSVLTVLHQDWLNGKEYKCKVSNKALPAPIEKTISKAKGQPREPQVCTLPPSRDELTKNQVSLWCLVKGFYPSDIAVEWESNGQPENNYKTTPPVLDSDGSFFLYSKLTVDKSRWQQGNVFSCSVMHEALHNRYTQKSLSLSP
light: DIVMTQSPLSLPVTPGEPASISCRSSQSLVHSNRNTYLHWYQQKPGQAPRLLIYKVSNRFSGVPDRFSGSGSGTDFTLKISRVEAEDVGVYYCGQGTQVPYTFGQGTKLEIKRTVAAPSVFIFPPSDEQLKSGTASVVCLLNNFYPREAKVQWKVDNALQSGNSQESVTEQDSKDSTYSLSSTLTLSKADYEKHKVYACEVTHQGLSSPVTKSFNRGEC
B3: CE115HA000 V100cE one-arm antibody (antibody, human IgG1, kappa, L234A L235A, N297A, name in Kabat numbering)
heavy: QVQLVESGGGVVQPGRSLRLSCAASGFTFSNAWMHWVRQAPGKGLEWVAQIKAKSNNYATYYAESVKGRFTISRDDSKNSLYLQMNSLKTEDTAVYYCRYVHYGAYYGEDAWGQGTTVTVSSASTKGPSVFPLAPSSKSTSGGTAALGCLVKDYFPEPVTVSWNSGALTSGVHTFPAVLQSSGLYSLSSVVTVPSSSLGTQTYICNVNHKPSNTKVDKKVEPKSCDKTHTCPPCPAPEAAGGPSVFLFPPKPKDTLMISRTPEVTCVVVDVSHEDPEVKFNWYVDGVEVHNAKTKPREEQYASTYRVVSVLTVLHQDWLNGKEYKCKVSNKALPAPIEKTISKAKGQPREPQVYTLPPSRCELTKNQVSLSCAVKGFYPSDIAVEWESNGQPENNYKTTPPVLDSDGSFFLVSKLTVDKSRWQQGNVFSCSVMHEALHNHYTQKSLSLSPDYKDDDDK
chain: EPKSSDKTHTCPPCPAPELLGGPSVFLFPPKPKDTLMISRTPEVTCVVVDVSHEDPEVKFNWYVDGVEVHNAKTKPREEQYNSTYRVVSVLTVLHQDWLNGKEYKCKVSNKALPAPIEKTISKAKGQPREPQVCTLPPSRDELTKNQVSLWCLVKGFYPSDIAVEWESNGQPENNYKTTPPVLDSDGSFFLYSKLTVDKSRWQQGNVFSCSVMHEALHNRYTQKSLSLSP
light: DIVMTQSPLSLPVTPGEPASISCRSSQSLVHSNRNTYLHWYQQKPGQAPRLLIYKVSNRFSGVPDRFSGSGSGTDFTLKISRVEAEDVGVYYCGQGTQVPYTFGQGTKLEIKRTVAAPSVFIFPPSDEQLKSGTASVVCLLNNFYPREAKVQWKVDNALQSGNSQESVTEQDSKDSTYSLSSTLTLSKADYEKHKVYACEVTHQGLSSPVTKSFNRGEC
B4: CE115HA000 V95G one-arm antibody (antibody, human IgG1, kappa, L234A L235A, N297A, name in Kabat numbering)
heavy: QVQLVESGGGVVQPGRSLRLSCAASGFTFSNAWMHWVRQAPGKGLEWVAQIKAKSNNYATYYAESVKGRFTISRDDSKNSLYLQMNSLKTEDTAVYYCRYGHYGAYYGVDAWGQGTTVTVSSASTKGPSVFPLAPSSKSTSGGTAALGCLVKDYFPEPVTVSWNSGALTSGVHTFPAVLQSSGLYSLSSVVTVPSSSLGTQTYICNVNHKPSNTKVDKKVEPKSCDKTHTCPPCPAPEAAGGPSVFLFPPKPKDTLMISRTPEVTCVVVDVSHEDPEVKFNWYVDGVEVHNAKTKPREEQYASTYRVVSVLTVLHQDWLNGKEYKCKVSNKALPAPIEKTISKAKGQPREPQVYTLPPSRCELTKNQVSLSCAVKGFYPSDIAVEWESNGQPENNYKTTPPVLDSDGSFFLVSKLTVDKSRWQQGNVFSCSVMHEALHNHYTQKSLSLSPDYKDDDDK
chain: EPKSSDKTHTCPPCPAPELLGGPSVFLFPPKPKDTLMISRTPEVTCVVVDVSHEDPEVKFNWYVDGVEVHNAKTKPREEQYNSTYRVVSVLTVLHQDWLNGKEYKCKVSNKALPAPIEKTISKAKGQPREPQVCTLPPSRDELTKNQVSLWCLVKGFYPSDIAVEWESNGQPENNYKTTPPVLDSDGSFFLYSKLTVDKSRWQQGNVFSCSVMHEALHNRYTQKSLSLSP
light: DIVMTQSPLSLPVTPGEPASISCRSSQSLVHSNRNTYLHWYQQKPGQAPRLLIYKVSNRFSGVPDRFSGSGSGTDFTLKISRVEAEDVGVYYCGQGTQVPYTFGQGTKLEIKRTVAAPSVFIFPPSDEQLKSGTASVVCLLNNFYPREAKVQWKVDNALQSGNSQESVTEQDSKDSTYSLSSTLTLSKADYEKHKVYACEVTHQGLSSPVTKSFNRGEC
B5: CE115HA000 V100cD one-arm antibody (antibody, human IgG1, kappa, L234A L235A, N297A, name in Kabat numbering)
heavy: QVQLVESGGGVVQPGRSLRLSCAASGFTFSNAWMHWVRQAPGKGLEWVAQIKAKSNNYATYYAESVKGRFTISRDDSKNSLYLQMNSLKTEDTAVYYCRYVHYGAYYGDDAWGQGTTVTVSSASTKGPSVFPLAPSSKSTSGGTAALGCLVKDYFPEPVTVSWNSGALTSGVHTFPAVLQSSGLYSLSSVVTVPSSSLGTQTYICNVNHKPSNTKVDKKVEPKSCDKTHTCPPCPAPEAAGGPSVFLFPPKPKDTLMISRTPEVTCVVVDVSHEDPEVKFNWYVDGVEVHNAKTKPREEQYASTYRVVSVLTVLHQDWLNGKEYKCKVSNKALPAPIEKTISKAKGQPREPQVYTLPPSRCELTKNQVSLSCAVKGFYPSDIAVEWESNGQPENNYKTTPPVLDSDGSFFLVSKLTVDKSRWQQGNVFSCSVMHEALHNHYTQKSLSLSPDYKDDDDK
chain: EPKSSDKTHTCPPCPAPELLGGPSVFLFPPKPKDTLMISRTPEVTCVVVDVSHEDPEVKFNWYVDGVEVHNAKTKPREEQYNSTYRVVSVLTVLHQDWLNGKEYKCKVSNKALPAPIEKTISKAKGQPREPQVCTLPPSRDELTKNQVSLWCLVKGFYPSDIAVEWESNGQPENNYKTTPPVLDSDGSFFLYSKLTVDKSRWQQGNVFSCSVMHEALHNRYTQKSLSLSP
light: DIVMTQSPLSLPVTPGEPASISCRSSQSLVHSNRNTYLHWYQQKPGQAPRLLIYKVSNRFSGVPDRFSGSGSGTDFTLKISRVEAEDVGVYYCGQGTQVPYTFGQGTKLEIKRTVAAPSVFIFPPSDEQLKSGTASVVCLLNNFYPREAKVQWKVDNALQSGNSQESVTEQDSKDSTYSLSSTLTLSKADYEKHKVYACEVTHQGLSSPVTKSFNRGEC
B6: CE115HA000 V95K one-arm antibody (antibody, human IgG1, kappa, L234A L235A, N297A, name in Kabat numbering)
heavy: QVQLVESGGGVVQPGRSLRLSCAASGFTFSNAWMHWVRQAPGKGLEWVAQIKAKSNNYATYYAESVKGRFTISRDDSKNSLYLQMNSLKTEDTAVYYCRYKHYGAYYGVDAWGQGTTVTVSSASTKGPSVFPLAPSSKSTSGGTAALGCLVKDYFPEPVTVSWNSGALTSGVHTFPAVLQSSGLYSLSSVVTVPSSSLGTQTYICNVNHKPSNTKVDKKVEPKSCDKTHTCPPCPAPEAAGGPSVFLFPPKPKDTLMISRTPEVTCVVVDVSHEDPEVKFNWYVDGVEVHNAKTKPREEQYASTYRVVSVLTVLHQDWLNGKEYKCKVSNKALPAPIEKTISKAKGQPREPQVYTLPPSRCELTKNQVSLSCAVKGFYPSDIAVEWESNGQPENNYKTTPPVLDSDGSFFLVSKLTVDKSRWQQGNVFSCSVMHEALHNHYTQKSLSLSPDYKDDDDK
chain: EPKSSDKTHTCPPCPAPELLGGPSVFLFPPKPKDTLMISRTPEVTCVVVDVSHEDPEVKFNWYVDGVEVHNAKTKPREEQYNSTYRVVSVLTVLHQDWLNGKEYKCKVSNKALPAPIEKTISKAKGQPREPQVCTLPPSRDELTKNQVSLWCLVKGFYPSDIAVEWESNGQPENNYKTTPPVLDSDGSFFLYSKLTVDKSRWQQGNVFSCSVMHEALHNRYTQKSLSLSP
light: DIVMTQSPLSLPVTPGEPASISCRSSQSLVHSNRNTYLHWYQQKPGQAPRLLIYKVSNRFSGVPDRFSGSGSGTDFTLKISRVEAEDVGVYYCGQGTQVPYTFGQGTKLEIKRTVAAPSVFIFPPSDEQLKSGTASVVCLLNNFYPREAKVQWKVDNALQSGNSQESVTEQDSKDSTYSLSSTLTLSKADYEKHKVYACEVTHQGLSSPVTKSFNRGEC

This assay deals with T1, CD3 epsilon homodimer protein (UniProt P07766 23-126).
T1 construct: immobilized on Sensor chip CM4 by amine coupling; also called CD3 (CD3 epsilon)
T1 sequence (P07766 23-126): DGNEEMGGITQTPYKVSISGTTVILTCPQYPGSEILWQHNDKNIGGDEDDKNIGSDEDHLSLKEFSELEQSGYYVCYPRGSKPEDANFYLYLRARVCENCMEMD
The assay can be described thus: SPR (Biacore T200), CD3 epsilon homodimer on CM4 chip, one-arm antibody as analyte, 25 C.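 Note: homodimer attached to the sensor surface via amine coupling, HBS-EP+ used as running buffer during binding runs.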 Background: SPR reads the build-up and loss of mass on a sensor chip optically.
With B1, the “ratio of amounts bound (altered form / CE115HA000)” value is 0.24.
Regarding B2, the “ratio of amounts bound (altered form / CE115HA000)” value amounted to 0.22.
The figure for B3 is 0.46; for B4 it is 0.19.
As to B5, the “ratio of amounts bound (altered form / CE115HA000)” value came to 0.44.
As to B6, the “ratio of amounts bound (altered form / CE115HA000)” value is 0.64.
